Measurements as given in the supplement of paper PMC10567573.

B1: ZNF263 (parent)
chain: CSECGESFSRSSRLMSHQRTHTG

Variants of: B1
Assay: protein stability index of a GFP-peptide fusion (GPS, HEK-293T) (PSI 1-6); higher = more stable
Conditions: c terminus: native
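Also: lentivirally expressed fusions sorted by FACS into six bins by GFP to DsRed ratio, PSI derived from sequencing read proportions per bin multiplied by bin number.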

Variant	protein stability index
CSECGESNSRSSRLMSHQRTHTG [F8N]	1.92
CSECGESKSRSSRLMSHQRTHTG [F8K]	2.14
CSECGESSSRSSRLMSHQRTHTG [F8S]	2.11
CSECGESESRSSRLMSHQRTHTG [F8E]	3.32
CSECGESYSRSSRLMSHQRTHTG [F8Y]	2.39
CSECGESASRSSRLMSHQRTHTG [F8A]	1.35
CSECGESQSRSSRLMSHQRTHTG [F8Q]	2.16
CSECGESPSRSSRLMSHQRTHTG [F8P]	1.91
CSECGESGSRSSRLMSHQRTHTG [F8G]	2.58
CSECGESRSRSSRLMSHQRTHTG [F8R]	2.2
CSECGESCSRSSRLMSHQRTHTG [F8C]	2
CSECGESHSRSSRLMSHQRTHTG [F8H]	2.13
CSECGESTSRSSRLMSHQRTHTG [F8T]	2.04
CSECGESWSRSSRLMSHQRTHTG [F8W]	3.15
CSECGVSFSRSSRLMSHQRTHTG [E6V]	2.97
CSECGLSFSRSSRLMSHQRTHTG [E6L]	3.22
CSECGKSFSRSSRLMSHQRTHTG [E6K]	3.25
CSECGNSFSRSSRLMSHQRTHTG [E6N]	1.73
CSECGSSFSRSSRLMSHQRTHTG [E6S]	2.94
CSECGQSFSRSSRLMSHQRTHTG [E6Q]	2.96
CSECGDSFSRSSRLMSHQRTHTG [E6D]	1.89
CSECGPSFSRSSRLMSHQRTHTG [E6P]	1.92
CSECGISFSRSSRLMSHQRTHTG [E6I]	2.15
CSECGWSFSRSSRLMSHQRTHTG [E6W]	2.02
CSECGTSFSRSSRLMSHQRTHTG [E6T]	1.76

Variant	protein stability index
CSECGRSFSRSSRLMSHQRTHTG [E6R]	3.9
CSECGCSFSRSSRLMSHQRTHTG [E6C]	2.52
CSECGFSFSRSSRLMSHQRTHTG [E6F]	1.61
CSECGYSFSRSSRLMSHQRTHTG [E6Y]	1.56
CSECGHSFSRSSRLMSHQRTHTG [E6H]	2.05
CSECGMSFSRSSRLMSHQRTHTG [E6M]	3.42
CSECGASFSRSSRLMSHQRTHTG [E6A]	3.66
CSEFGESFSRSSRLMSHQRTHTG [C4F]	1.24
CSEKGESFSRSSRLMSHQRTHTG [C4K]	1.42
CSERGESFSRSSRLMSHQRTHTG [C4R]	1.15
CSEDGESFSRSSRLMSHQRTHTG [C4D]	2.31
CSEVGESFSRSSRLMSHQRTHTG [C4V]	2.12
CSEHGESFSRSSRLMSHQRTHTG [C4H]	1.4
CSEQGESFSRSSRLMSHQRTHTG [C4Q]	1.53
CSEMGESFSRSSRLMSHQRTHTG [C4M]	1.85
CSENGESFSRSSRLMSHQRTHTG [C4N]	2.11
CSELGESFSRSSRLMSHQRTHTG [C4L]	1.81
CSEPGESFSRSSRLMSHQRTHTG [C4P]	1.51
CSETGESFSRSSRLMSHQRTHTG [C4T]	1.56
CSEAGESFSRSSRLMSHQRTHTG [C4A]	1.56
CSEEGESFSRSSRLMSHQRTHTG [C4E]	1.8
CSEGGESFSRSSRLMSHQRTHTG [C4G]	1.82
CSEIGESFSRSSRLMSHQRTHTG [C4I]	1.74
QSECGESFSRSSRLMSHQRTHTG [C1Q]	2.46
KSECGESFSRSSRLMSHQRTHTG [C1K]	2.05

Variant	protein stability index
DSECGESFSRSSRLMSHQRTHTG [C1D]	1.84
HSECGESFSRSSRLMSHQRTHTG [C1H]	2.11
RSECGESFSRSSRLMSHQRTHTG [C1R]	2.32
MSECGESFSRSSRLMSHQRTHTG [C1M]	2.22
YSECGESFSRSSRLMSHQRTHTG [C1Y]	1.9
FSECGESFSRSSRLMSHQRTHTG [C1F]	1.49
ASECGESFSRSSRLMSHQRTHTG [C1A]	2.23
SSECGESFSRSSRLMSHQRTHTG [C1S]	2.14
PSECGESFSRSSRLMSHQRTHTG [C1P]	3.14
GSECGESFSRSSRLMSHQRTHTG [C1G]	2.36
ISECGESFSRSSRLMSHQRTHTG [C1I]	2.1
VSECGESFSRSSRLMSHQRTHTG [C1V]	1.59
WSECGESFSRSSRLMSHQRTHTG [C1W]	1.56
LSECGESFSRSSRLMSHQRTHTG [C1L]	1.75
ESECGESFSRSSRLMSHQRTHTG [C1E]	3.15
TSECGESFSRSSRLMSHQRTHTG [C1T]	2.06
NSECGESFSRSSRLMSHQRTHTG [C1N]	2.31
CSECGESFSNSSRLMSHQRTHTG [R10N]	4.99
CSECGESFSTSSRLMSHQRTHTG [R10T]	5.16
CSECGESFSDSSRLMSHQRTHTG [R10D]	5.6
CSECGESFSGSSRLMSHQRTHTG [R10G]	2.95
CSECGESFSWSSRLMSHQRTHTG [R10W]	1.15
CSECGESFSKSSRLMSHQRTHTG [R10K]	2.68
CSECGESFSMSSRLMSHQRTHTG [R10M]	3.62
CSECGESFSHSSRLMSHQRTHTG [R10H]	4.29

Variant	protein stability index
CSECGESFSSSSRLMSHQRTHTG [R10S]	5.28
CSECGESFSESSRLMSHQRTHTG [R10E]	5.27
CSECGESFSPSSRLMSHQRTHTG [R10P]	2
CSECGESFSLSSRLMSHQRTHTG [R10L]	3.71
CSECGESFSYSSRLMSHQRTHTG [R10Y]	2.83
CSECGESFSCSSRLMSHQRTHTG [R10C]	4.11
CSECGESFSASSRLMSHQRTHTG [R10A]	2.98
CSECGESFSVSSRLMSHQRTHTG [R10V]	3.48
CSECGESFSQSSRLMSHQRTHTG [R10Q]	3.85
CSECGESFSISSRLMSHQRTHTG [R10I]	2.95
CSECGESFSFSSRLMSHQRTHTG [R10F]	2.51
CSECGESFSRMSRLMSHQRTHTG [S11M]	4.29
CSECGESFSRCSRLMSHQRTHTG [S11C]	3.34
CSECGESFSRPSRLMSHQRTHTG [S11P]	4.22
CSECGESFSRHSRLMSHQRTHTG [S11H]	3.47
CSECGESFSRISRLMSHQRTHTG [S11I]	3.98
CSECGESFSRDSRLMSHQRTHTG [S11D]	2.1
CSECGESFSRFSRLMSHQRTHTG [S11F]	3.14
CSECGESFSRGSRLMSHQRTHTG [S11G]	3.13
CSECGESFSRNSRLMSHQRTHTG [S11N]	2.31
CSECGESFSRASRLMSHQRTHTG [S11A]	4.04
CSECGESFSRKSRLMSHQRTHTG [S11K]	3.55
